Measured values: the RNAGym collection of RNA variant scans (doi:10.1093/nar/gkz1192)

B1: CPEB3 Ribozyme (parent)
chain: UAACAGGGGGCCACAGCAGAAGCGUUCACGUCGCAGCCCCUGUCAGAUUCUGGUGAAUCUGCGAAUUCUGCUGUAUAUCUC

Variants of: B1
Assay: self-cleavage, relative activity (ratio to wild type); higher = more cleavage; in vitro, sequencing
Outline: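 Libraries of CPEB3 self-cleaving ribozyme mutants came from rounds of error-prone PCR and carried barcodes, which DNA sequencing matched to variants. In vitro transcription used T7 RNA polymerase at 37°C for 5 hours, with a further 15 min in DNase I before EDTA stopped the reaction; the ribozymes cleaved during both steps. The RNA was reverse transcribed with template switching and sequenced on Illumina. Relative activity is the cleaved/total read fraction of a variant divided by that of the unmutated ribozyme, averaged over three batches with at least 5 reads.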

| Variant | self-cleavage |
| --- | --- |
| G55A U69C | 0.28 |
| G55A U69A | 0.39 |
| G55A U69G | 0.34 |
| G55U A75G | 0.92 |
| U54A U80A | 1.21 |
| U54A U80C | 1.14 |
| A56G U74A | 1.11 |
| A56G U74C | 1.12 |
| A56G C79G | 1.16 |
| A56G C79A | 1.18 |
| A57G | 0.96 |
| A57C | 0.48 |
| U54C U78A | 1.03 |
| U54C U78C | 0.97 |
| U54C U78G | 1.07 |
| U54G A77G | 0.74 |
| G55U U74C | 1.35 |
| A57C G63A | 0.58 |
| U54G A64G | 0.6 |
| U54G A64U | 0.28 |
| G55A G61A | 0.39 |
| U54C G55U | 0.78 |
| U54C G55A | 0.62 |
| U54G U69A | 0.62 |

| Variant | self-cleavage |
| --- | --- |
| U54G U69C | 0.37 |
| A56U A65G | 0.29 |
| A56U A65U | 0.21 |
| A56U A75U | 0.79 |
| A56U A75G | 0.54 |
| G55C U69C | 0.44 |
| U54C A77G | 1.07 |
| U54C A77U | 1.07 |
| U54C A77C | 0.87 |
| A56U U76G | 0.89 |
| A56U U76A | 0.84 |
| A56U U76C | 0.8 |
| U54A U74G | 1.3 |
| U54A U74C | 1.28 |
| A56U U58C | 0.3 |
| A56U U58G | 0.18 |
| A56U U58A | 0.31 |
| A56G G73C | 1.26 |
| A56G G73U | 1.15 |
| A56U C68U | 0.55 |
| A57C C62U | 0.14 |
| A56U G70U | 0.21 |
| A56U G70A | 0.35 |
| A56U U80A | 1 |

| Variant | self-cleavage |
| --- | --- |
| A56U U80C | 0.83 |
| U54C A75G | 0.88 |
| U54C A75U | 1.2 |
| A56U U69G | 0.46 |
| A56U U69C | 0.38 |
| A56U U69A | 0.33 |
| U54G U58C | 0.39 |
| U54G U58A | 0.2 |
| U54G U72C | 1.16 |
| U54G U72G | 0.93 |
| U54G U72A | 0.41 |
| A56U U74C | 1.06 |
| A56U U74A | 1.17 |
| U54G U66C | 0.28 |
| G55A U60C | 0.25 |
| G55A U60A | 0.44 |
| A56G G70A | 0.49 |
| A56G G70C | 0.21 |
| A56G G70U | 0.25 |
| A57G A64U | 0.36 |
| A57G A64G | 0.81 |
| G55C U74G | 1.13 |
| G55A U58C | 0.27 |
| U54C A57U | 0.56 |

| Variant | self-cleavage |
| --- | --- |
| U54C A57G | 0.66 |
| U54C A57C | 0.23 |
| A56G A57C | 0.19 |
| A56G A57G | 0.42 |
| A56G A57U | 0.37 |
| G55U C62U | 0.23 |
| U54G C68U | 0.68 |
| A56U C81A | 1.2 |
| A56G U58A | 0.32 |
| A56G U58G | 0.22 |
| A56G U58C | 0.38 |
| U54G A56G | 0.46 |
| U54G A56U | 0.31 |
| A56G C62A | 0.23 |
| A56G C62U | 0.31 |
| A56G C62G | 0.2 |
| G55C A57G | 0.37 |
| A56C U58C | 0.14 |
| A57C G61C | 0.16 |
| G55A A57G | 0.46 |
| G55A A57U | 0.54 |
| A56G G63A | 0.97 |
| A56G G63U | 1.03 |
| A57C U78A | 0.4 |

| Variant | self-cleavage |
| --- | --- |
| A57C U78C | 0.66 |
| A56G U67A | 0.46 |
| A56G U67C | 0.3 |
| A56U C71A | 0.26 |
| A56U C71U | 0.46 |
| A56U C71G | 0.26 |
| U54C | 1.02 |
| U54G | 0.77 |
| U54C U69A | 0.57 |
| U54C U69C | 0.52 |
| U54C U69G | 0.43 |
| G55C A77G | 1.04 |
| A56C A75G | 0.29 |
| G55C | 0.94 |
| G55U | 1.02 |
| G55A | 0.84 |
| G55U U58A | 0.25 |
| A56U C62U | 0.21 |
| U54C C79A | 1.18 |
| A56U U60G | 0.24 |
| A56U U60C | 0.27 |
| A56U U60A | 0.3 |
| U54C C68A | 0.43 |
| U54C C68G | 0.29 |

| Variant | self-cleavage |
| --- | --- |
| U54C C68U | 1.09 |
| U54C U67C | 0.26 |
| U54C U67A | 0.48 |
| U54C G73A | 1.26 |
| U54C G73C | 1.33 |
| U54C G73U | 1.22 |
| U54C C59A | 0.3 |
| U54C C59U | 0.68 |
| G55U A65G | 0.24 |
| G55U A65U | 0.31 |
| A56G U69G | 0.54 |
| A56G U69C | 0.43 |
| A56G U69A | 0.5 |
| A56G U72A | 0.64 |
| A56G U72C | 0.93 |
| A56G U72G | 0.63 |
| A56C U76A | 0.71 |
| A56U C59U | 0.19 |
| A56U C59G | 0.13 |
| A56U C59A | 0.28 |
| U54G A75U | 0.96 |
| A56G A77G | 0.77 |
| A56G A77C | 0.79 |
| A56G A77U | 0.99 |

| Variant | self-cleavage |
| --- | --- |
| G55C G70C | 0.17 |
| U54C U60G | 0.5 |
| U54C U60C | 0.39 |
| U54C U60A | 0.42 |
| A56C U60C | 0.18 |
| G55C A64G | 0.72 |
| G55C A64U | 0.23 |
| A56C | 0.63 |
| A56G | 0.91 |
| A56U | 0.74 |
| A56G U80C | 0.84 |
| A56G U80A | 0.92 |
| A56G U80G | 0.99 |
| U54A U78C | 1.05 |
| U54A U78A | 1.19 |
| U54C G61C | 0.3 |
| U54C G61A | 0.65 |
| U54G C62U | 0.19 |
| A56C A65G | 0.22 |
| G55C U80A | 0.7 |
| A56C U66C | 0.32 |
| G55U U78C | 0.75 |
| A57C U67C | 0.27 |
